Assay results published in article PMC4646684.

Experiments:
[1] = target: soluble form of Fas ligand (mouse (endogenous in primary Balb/cJ bone marrow-derived osteoclast cultures))
[2] = target: soluble form of Fas ligand (mouse (endogenous in primary Balb/cJ bone marrow-derived osteoclast cultures)); remark: listed apart in the source

soluble form of Fas ligand (mouse (endogenous in primary Balb/cJ bone marrow-derived osteoclast cultures)), sequence (P41047 101-279): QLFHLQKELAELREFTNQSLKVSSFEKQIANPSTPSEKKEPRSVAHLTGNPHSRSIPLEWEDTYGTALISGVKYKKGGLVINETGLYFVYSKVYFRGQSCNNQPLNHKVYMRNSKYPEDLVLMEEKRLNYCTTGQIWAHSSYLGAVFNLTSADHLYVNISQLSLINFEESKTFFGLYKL

concentration of soluble FasL in the osteoclast culture medium by ELISA, 24 h with OPG at 0, 20, 40, 80 ng/mL (69.44, 54.51, 41.71, 4.59 pg/mL; falls with the dose) [1]: 69.4 pg/mL
percentage of apoptotic osteoclasts (TUNEL-derived method), 24 h with OPG at 0, 20, 40, 80 ng/mL (22.7%, 34.8%, 43.5%, 51.3%) [2]: 51.3%
Substance: Osteoprotegerin (from UniProt O08712 22-401) (receptor)
